Numbering of substitutions follows the chain as printed. Numbers in names are those of the source.
Experiments:
[1] = target: T1, human flavin-containing monooxygenase 3 (hFMO3), N61S variant (Homo sapiens, UniProt P31513, N61S); assay: stopped-flow anaerobic FAD reduction at […] nm, Kd from kobs vs [NADPH]; format: biochemical; conditions: read-out: Reduction / K d,NADPH /
T1 construct: gene FMO3
T1 sequence (P31513 2-532 N61S): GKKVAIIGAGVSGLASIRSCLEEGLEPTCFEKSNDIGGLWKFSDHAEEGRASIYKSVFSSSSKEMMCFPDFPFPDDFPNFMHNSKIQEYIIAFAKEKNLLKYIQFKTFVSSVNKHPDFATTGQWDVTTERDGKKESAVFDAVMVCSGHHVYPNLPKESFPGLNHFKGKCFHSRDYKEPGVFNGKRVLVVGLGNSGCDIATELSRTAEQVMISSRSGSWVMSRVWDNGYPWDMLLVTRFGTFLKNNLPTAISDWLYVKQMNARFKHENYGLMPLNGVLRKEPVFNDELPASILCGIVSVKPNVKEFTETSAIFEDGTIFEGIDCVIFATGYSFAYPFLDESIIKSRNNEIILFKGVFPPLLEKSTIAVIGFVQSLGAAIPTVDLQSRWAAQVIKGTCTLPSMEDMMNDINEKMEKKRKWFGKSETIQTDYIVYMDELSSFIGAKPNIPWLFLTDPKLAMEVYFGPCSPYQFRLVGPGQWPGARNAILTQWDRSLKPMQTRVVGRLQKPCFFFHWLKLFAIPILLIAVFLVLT

[2] = target: T2, human flavin-containing monooxygenase 3 (hFMO3), wild type (Homo sapiens, UniProt P31513); assay: as above; format: biochemical; conditions: read-out: Reduction / K d,NADPH /
T2 construct: gene FMO3
T2 sequence (P31513 2-532): T1 sequence (P31513 2-532 N61S) with S60N

[3] = target: T2, human flavin-containing monooxygenase 3 (hFMO3), wild type; assay: ITC (supported by CD and DSC thermal shifts and trypsin protection); format: binding
purified protein [4] = substrate: CC/C(=C(\c1ccccc1)c1ccc(OCCN(C)C)cc1)c1ccccc1; assay: purified protein; conditions: FAD, NADPH
purified protein [5] = substrate: CN(C)CCCOc1nn(Cc2ccccc2)c2ccccc12; assay: purified protein; conditions: FAD, NADPH
purified protein [6] = substrate: Cn1cc[nH]c1=S; assay: purified protein; conditions: FAD, NADPH
purified protein [7] = substrate: CN(C)C; assay: purified protein; format: biochemical, Homo sapiens; conditions: FAD, NADPH

Molecule: NC(=O)C1=CN([C@@H]2O[C@H](COP(=O)(O)OP(=O)(O)OC[C@H]3O[C@@H](n4cnc5c(N)ncnc54)[C@H](OP(=O)(O)O)[C@@H]3O)[C@@H](O)[C@H]2O)C=CC1 [NADPH]
- Kd [1]: 51.8 µM
- Kd [2]: 300 nM

Molecule: NC(=O)c1ccc[n+]([C@@H]2O[C@H](COP(=O)(O)OP(=O)(O)OC[C@H]3O[C@@H](n4cnc5c(N)ncnc54)[C@H](OP(=O)(O)O)[C@@H]3O)[C@@H](O)[C@H]2O)c1 [NADP^+]
- Kd [3]: 3.7 µM

B1: human flavin-containing monooxygenase 3 (hFMO3), N61S variant (Homo sapiens; N61S) (protein)
chain: T1 sequence (P31513 2-532 N61S)
- Km (purified protein [4]): 14.8 ± 3.4 µM
- kcat (purified protein [4]): 0.00733 s⁻¹
- kcat/Km (purified protein [4]): 500 M⁻¹ s⁻¹
- Km (purified protein [5]): 417.3 ± 74.6 µM
- kcat (purified protein [5]): 0.0333 s⁻¹
- kcat/Km (purified protein [5]): 83.3 M⁻¹ s⁻¹
- Km (purified protein [6]): 8.6521 ± 0.3516 mM
- kcat (purified protein [6]): 0.118 s⁻¹
- kcat/Km (purified protein [6]): 13.3 M⁻¹ s⁻¹

B2: human flavin-containing monooxygenase 3 (hFMO3), wild type (Homo sapiens) (protein)
chain: T1 sequence (P31513 2-532 N61S) with S60N
- Km (purified protein [6]): 0.0149 ± 0.002 mM
- kcat (purified protein [6]): 0.14 s⁻¹
- kcat/Km (purified protein [6]): 9330 M⁻¹ s⁻¹
- Km (purified protein [7]): 21.7 ± 4.6 µM
- kcat (purified protein [7]): 0.045 ± 0.00333 s⁻¹
- kcat/Km (purified protein [7]): 2000 M⁻¹ s⁻¹

From article PMC5676948, “Inactivation mechanism of N61S mutant of human FMO3 towards trimethylamine” (Scientific Reports, 2017)
